Measurements: publication PMC10879702, “Host ZCCHC3 blocks HIV-1 infection and production through a dual mechanism”

Key:
[1] = test system: GST-ZCCHC3 MF R247S (human); test: pull-down
[2] = test system: GST-ZCCHC3 MF R168S (human); test: pull-down
[3] = test system: GST-ZCCHC3 MF R168/247S (human); test: pull-down
[4] = molecular target: T1, GST-ZCCHC3 MF (middle-fold domain) (human, UniProt Q9NUD5 159-334); test: pull-down; details: protein: recombinant; tags: GST; hairpin
T1 sequence: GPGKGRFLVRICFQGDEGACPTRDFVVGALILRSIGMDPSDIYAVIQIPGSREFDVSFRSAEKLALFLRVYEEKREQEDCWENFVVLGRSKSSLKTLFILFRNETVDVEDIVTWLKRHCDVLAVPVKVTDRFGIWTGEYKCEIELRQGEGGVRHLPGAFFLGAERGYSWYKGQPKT

[5] = molecular target: T1, GST-ZCCHC3 MF (middle-fold domain); test: pull-down; Pull-down: 20 mM Tris-HCl pH 7.4, 30 mM NaCl, 0.1 mM MgCl2, 1 mM DTT, RNase inhibitor, 10 min; EMSA: 40 mM Tris pH 8.0, 2 mM KCl, 1 mM MgCl2, 1% NP-40, 1 mM DTT, 25 C, 10 min; details: protein: recombinant; tags: GST; hairpin

Molecule: HIV-1 5' LTR (R-U5) RNA
- binding signal [1]: 50 % of WT
- binding signal [2]: 50 % of WT
- binding signal [3]: 15 % of WT

Molecule: UCUCUGGUUAGACCAGAUCUGAGCCUGGGAGCUCUCUGGCUAACUAGGGA (structured_RNA) [HIV-1 LTR SL1]
- binding result [4]: binds

Molecule: CCACUGCUUAAGCCUCAAUAAAGCUUGCCUUGAGUGCUCAAAGUAGUGU (structured_RNA) [HIV-1 LTR SL2]
- binding result [4]: binds

Molecule: CUAGAGAUCCCUCAGACCCUUUUAGUCAGUGUGGAAAAUCUCUAG (structured_RNA) [HIV-1 LTR SL3]
- binding result [5]: binds
